Experimental data as given in article PMC8395186, “Structural Basis of Inhibition of DCLK1 by Ruxolitinib” (International Journal of Molecular Sciences, 2021).

Target: the molecule itself
Experiment: crystal structure; sitting-drop vapor diffusion at 23 °C; co-crystallised with AMP-PNP, then soaked with ruxolitinib; two molecules per asymmetric unit; interface analysed with the PISA server

B1: Doublecortin-like kinase 1 (DCLK1) kinase domain (domain or fragment, UniProt O15075 372-649, looked up)
chain: GEEVSEEGFQIPATITERYKVGRTIGDGNFAVVKECVERSTAREYALKIIKKSKCRGKEHMIQNEVSILRRVKHPNIVLLIEEMDVPTELYLVMELVKGGDLFDAITSTNKYTERDASGMLYNLASAIKYLHSLNIVHRDIKPENLLVYEHQDGSKSLKLGDFGLATIVDGPLYTVCGTPTYVAPEIIAETGYGLKVDIWAAGVITYILLCGFPPFRGSGDDQEVLFDQILMGQVDFPSPYWDNVSDSAKELITMMLLVDVDQRFSAVQVLEHPWVND
notes: Doublecortin-like kinase 1 (DCLK1), kinase domain, residues Gly372-Asp649; residues 376-648 are resolved in the structure; Non-phosphorylated; Crystallised with AMP-PNP, then soaked with ruxolitinib; Two molecules per asymmetric unit form the dimer; also called DCLK1KD; source: E. coli Rosetta2(DE3)pLysS, purified (Ni-NTA, TEV cleavage, SEC); not shown: His6, N-terminal, cleaved
stoichiometry N: 2
